From US20130101592A1 (LYKERA BIOMED, published 2013)

How the values were obtained:
recombinant human S100A7 = biological target: T1, recombinant human S100A7 (human, UniProt P31151 1-101); experiment: ELISA on purified protein; legend: - no reaction
T1 sequence (looked up): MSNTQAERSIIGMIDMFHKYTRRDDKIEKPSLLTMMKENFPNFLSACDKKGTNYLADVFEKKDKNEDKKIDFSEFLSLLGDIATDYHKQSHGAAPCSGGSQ

[1] = biological target: recombinant human S100A2 (Abnova) (human, UniProt P29034 1-98); experiment: ELISA on purified protein; legend: - no reaction
[2] = biological target: T2, recombinant human S100A1 (Abnova) (human, UniProt P23297 1-94); experiment: ELISA on purified protein; legend: - no reaction
T2 sequence (looked up): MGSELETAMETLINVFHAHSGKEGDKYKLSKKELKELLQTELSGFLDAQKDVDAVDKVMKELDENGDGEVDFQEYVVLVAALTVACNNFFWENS

[3] = biological target: recombinant human S100A6 (Abnova) (human, UniProt P06703 1-90); experiment: ELISA on purified protein; legend: - no reaction
[4] = biological target: T3, recombinant murine S100A4 (murine, UniProt P07091 1-101); experiment: ELISA on purified protein; legend: ++++ positive reaction
T3 construct: also called Mouse S100A4
T3 sequence (P07091 whole entry, one chain of several): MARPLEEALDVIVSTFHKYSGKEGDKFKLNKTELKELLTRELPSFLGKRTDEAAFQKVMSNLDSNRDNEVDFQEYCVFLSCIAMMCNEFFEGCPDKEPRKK

Chain of recombinant human S100A2 (Abnova) (P29034 whole entry, one chain of several): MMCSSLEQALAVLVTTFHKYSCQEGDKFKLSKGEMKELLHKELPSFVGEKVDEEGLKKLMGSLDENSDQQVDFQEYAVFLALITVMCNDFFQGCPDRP

B1: monoclonal antibody 5C3 (hybridoma 5C3-1B8-1F4, ECACC 10022401) (antibody, IgG1, V domains shown)
VH: EAQLQQSGAELVKPGASVKLSCTASGFNIQETYMHWVKQRPEQGLEWIGRIDPANGNTKDDPKFQGKASITVDTSSNTAYLQLSSLTSEDTAVYYCASSYAMDYWGQGTSVTVSS
VL: DVLMTQTPLSLPVSLGDQASISCRSSQSIVHSNGNTYLEWYLQKTGQSPELLIYKVSNRLSGVPDRFSGSGSGTDFTLKISRVEAEDLGVYYCFQGSHVPFTFGSGTKLEIK
notes: constant regions are not; also called monoclonal mouse anti-human S100A4 5C3
- binding result (recombinant human S100A7): no binding
- binding result [1]: no binding
- binding result [2]: no binding
- binding result [3]: no binding
- binding result [4]: binds
